Measurements reported in US20240318146A1, “VASCULARIZED ORGANOIDS” (CHILDREN’S HOSPITAL MEDICAL CENTER, priority 2021, published 2024).

Legend:
[1] = tested on: Human pluripotency stem cells; assay: Mesoderm vs. endoderm induction in human pluripotent stem cell spheroids (FOXA2/HAND1 staining, first three days); format: cell-based
Method: To recapitulate the gut tube organogenesis in vitro, a 3D suspension culture system to differentiate endoderm and mesoderm concomitantly from human iPSCs was established. By fine-tuning the dosage and timing of Wnt, Nodal (or TGF-b), and BMP activation, mesendoderm spheroids containing both definitive endodermal (DE, FOXA2+) and lateral plate mesoderm (LPM, HAND1+) populations were generated (FIG. 2A). It was also determined that ˜28 hours of the Wnt activation was a good duration for generating appropriate amounts of both DE and LPM populations from the iPSCs (approximately 1:1) (FIG. 2B). LPM derived splanchnic mesoderm (SM, FOXF1+) further gives rise to the mesenchyme surrounding the primitive gut tube. The SM will then differentiate into the connective tissue, smooth muscle cells (SMCs), and blood vessels of the endodermal organs.
• a) At Day −1, dissociate human iPSCs or human ESCs into single cells. • b) Using an Aggrewell plate (StemCell), or other compatible cell collection plate, generate spheroids of the pluripotent cells. Note: the number of cells in each microwell should be between 500-2000 cells. Accordingly, the spheroid diameter range should be from 50-200 μm. • c) Culture the cells in steady condition (37° C. cell incubator) overnight. Note: usually, the spheroid will form at day 0. […]

mesendoderm spheroids = conditions: 50 ng/mL, day 3 to day 7 (FIG. 3C)
Excerpt: To form various organs properly, the endoderm transforms into a primitive gut tube and is then regionalized along the dorsal-ventral (D-V) and anterior-posterior (A-P) axis into foregut, midgut, and hindgut under the control of various signaling pathways: BMP and TGF-b inhibition facilitate foregut formation, while Wnt and FGF activation facilitate mid/hindgut development.

[2] = tested on: human vascularized gut tube organoids; assay: Single-cell RNA-seq of Day 7 vascularized foregut and mid/hindgut organoids, reverse projection to mouse E8.75 gut tube atlas; format: cell-based
Excerpt: FIG. 17A depicts representative UMAP projection of foregut organoid (1-day treatment of BMP4 from day 1-3) and mid/hindgut organoid (3-days treatment of BMP4 from day 1-3). FIG. 17B-D depict reverse projection of human vascularized gut tube organoids to mouse E8.75 gut tube atlas. FIG. 17B depicts mouse E8.75 embryonic gut tube containing both anterior (A) and posterior (P) portion. Gut tube (endoderm), mesenchyme, and endothelium populations are segregated into A-P subclusters. FIG. 17C depicts Day 7 foregut organoid reverse projection to mouse E8.75 gut tube. […] FIG. 17D depicts Day 7 mid/hindgut organoid reverse projection to mouse E8.75 tube.

Embryoid bodies (EBs) = assay: Single-cell RNA-seq of Day 3 meso/endoderm organoids; format: cell-based, human; conditions: accumulated stimulation (0, 1, 2, and 3 days), scRNA-seq at day 3 (FIG. 16E)
Excerpt: Embryoid bodies (EBs) receiving various duration of BMP4 stimulation (0, 1, 2, and 3 days) were subjected to single-cell RNA-seq at day 3 (FIG. 16A). They contained both mesoderm and endoderm populations. FIG. 16B depicts a feature plot of cell distributions under different BMP4 treatment durations. FIG. 16C depicts clustering of d3 meso/endoderm based on marker genes. FIG. 16D depicts a reference map comparison of d3 meso/endoderm to CS7 gastrulation human embryo AM: Advanced mesoderm; EM: Emergent mesoderm; PS: Primitive Streak. FIG. 16E depicts a cluster projection of day 3 meso/endoderm organoids to mouse early gastrulation embryos. i. UMAP of mouse E6.5˜E8.5 embryos. ii. Reverse projection of day 3 organoids to mouse embryos map.

## Cc1c[nH]c(-c2cnc(NCCNc3ccc(C#N)cn3)nc2-c2ccc(Cl)cc2Cl)n1 [CHIR99201, reference compound]
[1]; Activation of Wnt under different durations, first three days (FIG. 14A)
  mesoderm/endoderm ratio: drastically changed mesoderm/endoderm ratio

## VEGF
Mesendoderm spheroids
  vascular network (CD31+) surrounding the FOXA2+ epithelial layer: a significant amount of a vascular network (CD31+)

B1: BMP4: BMP pathway activator, BMP protein (protein, UniProt P12644 293-408, looked up)
Bone morphogenetic protein 4: SPKHHSQRARKKNKNCRRHSLYVDFSDVGWNDWIVAPPGYQAFYCHGDCPFPLADHLNSTNHAIVQTLVNSVNSSIPKACCVPTELSAISMLYLDEYDKVVLKNYQEMVVEGCGCR
[2]; Day 7 foregut organoid, one-day treatment compared to no BMP4 (FIG. 17C)
  anterior gut tube endoderm and endothelium populations: generated purer anterior gut tube endoderm and more anterior endothelium
[2]; Day 7 mid/hindgut organoid, longer treatment during the first three-day differentiation (FIG. 17D)
  posterior gut tube endoderm, mesenchyme, and endothelium populations: induced more posterior gut tube endoderm, mesenchyme, and endothelium
[1]; Prolonged treatment (FIG. 14B)
  mesoderm/endoderm ratio: increased mesoderm/endoderm ratio
Embryoid bodies (EBs)
  mesenchymal population: augmented mesenchymal population
  neural lineage: reduced neural lineage
